Data published in publication PMC9482650, “Quantitative fragmentomics allow affinity mapping of interactomes” (Nature Communications, 2022).

T1: APBA2_1, Q99767
T1 sequence (Q99767 563-664, limits assumed, looked up): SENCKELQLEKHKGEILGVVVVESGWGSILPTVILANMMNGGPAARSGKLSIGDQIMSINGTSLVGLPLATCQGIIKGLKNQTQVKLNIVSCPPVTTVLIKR

T2: DLG3_1, Q92796
T2 sequence (Q92796 125-227, limits assumed, looked up): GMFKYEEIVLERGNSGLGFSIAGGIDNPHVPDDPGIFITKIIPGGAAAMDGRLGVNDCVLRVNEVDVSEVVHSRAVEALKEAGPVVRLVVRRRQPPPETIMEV

T3: DLG3_2, Q92796
T3 sequence (Q92796 221-321, limits assumed, looked up): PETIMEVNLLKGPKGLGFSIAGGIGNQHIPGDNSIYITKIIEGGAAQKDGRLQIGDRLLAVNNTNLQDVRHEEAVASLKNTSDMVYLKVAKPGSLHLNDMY

T4: DVL3, Q92997
T4 sequence (Q92997 244-331, limits assumed, looked up): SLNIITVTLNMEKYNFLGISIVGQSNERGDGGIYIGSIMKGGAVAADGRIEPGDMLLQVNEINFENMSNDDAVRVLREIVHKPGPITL

T5: FRMPD1, Q5SYB0
T5 sequence (Q5SYB0 52-145, limits assumed, looked up): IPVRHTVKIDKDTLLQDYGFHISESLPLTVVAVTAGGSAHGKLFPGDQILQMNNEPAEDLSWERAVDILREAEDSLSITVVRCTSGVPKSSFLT

T6: GRIP1_2, Q9Y3R0
T6 sequence (Q9Y3R0 145-248, limits assumed, looked up): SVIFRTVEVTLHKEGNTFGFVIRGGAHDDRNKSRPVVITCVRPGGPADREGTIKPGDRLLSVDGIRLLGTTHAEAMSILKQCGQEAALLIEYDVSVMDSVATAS

T7: LIN7A, O14910
T7 sequence (O14910 103-200, limits assumed, looked up): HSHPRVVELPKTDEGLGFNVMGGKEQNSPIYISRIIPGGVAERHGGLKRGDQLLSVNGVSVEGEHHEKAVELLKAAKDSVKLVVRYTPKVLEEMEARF

T8: LIN7B, Q9HAP6
T8 sequence (Q9HAP6 88-185, limits assumed, looked up): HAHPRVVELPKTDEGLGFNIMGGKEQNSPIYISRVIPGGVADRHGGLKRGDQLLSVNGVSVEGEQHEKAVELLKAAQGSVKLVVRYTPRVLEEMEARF

T9: MPP6, Q9NZW5
T9 sequence (Q9NZW5 125-219, limits assumed, looked up): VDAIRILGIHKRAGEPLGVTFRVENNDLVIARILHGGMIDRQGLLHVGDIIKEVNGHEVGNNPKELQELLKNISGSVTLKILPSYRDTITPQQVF

T10: PCLO, Q9Y6V0
T10 sequence (Q9Y6V0 4491-4600, limits assumed, looked up): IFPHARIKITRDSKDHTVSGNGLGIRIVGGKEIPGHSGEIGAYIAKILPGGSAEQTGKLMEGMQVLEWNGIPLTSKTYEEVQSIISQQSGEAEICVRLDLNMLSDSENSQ

T11: PDZRN3_1, Q9UPQ7
T11 sequence (Q9UPQ7 244-349, limits assumed, looked up): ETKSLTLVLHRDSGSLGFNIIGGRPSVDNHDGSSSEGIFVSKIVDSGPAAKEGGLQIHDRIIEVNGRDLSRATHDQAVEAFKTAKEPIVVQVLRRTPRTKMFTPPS

T12: SNTG1, Q9NSN8
T12 sequence (Q9NSN8 52-150, limits assumed, looked up): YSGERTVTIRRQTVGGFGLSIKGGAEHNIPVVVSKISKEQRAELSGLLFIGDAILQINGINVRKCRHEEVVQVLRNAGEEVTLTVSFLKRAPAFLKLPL


Tests used:
Assay in all cases: holdup assay
Set-up in all cases: key: below the threshold = too weak to quantify, mostly under pKd 3.1 to 4
Details in all cases: plain residues with an end cap or a label only (N-terminal biotin on a linker: ado-ado)
APBA2_1, Q99767 = biological target: T1, APBA2_1, Q99767
ARHGEF12, Q9NZN5-2 = biological target: ARHGEF12, Q9NZN5-2
Sequence of ARHGEF12, Q9NZN5-2 (Q9NZN5 other isoform, or with tags, fused parts or gaps): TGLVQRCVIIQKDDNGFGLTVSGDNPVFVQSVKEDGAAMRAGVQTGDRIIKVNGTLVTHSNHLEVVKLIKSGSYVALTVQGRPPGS

DLG3_1, Q92796 = biological target: T2, DLG3_1, Q92796
DLG3_2, Q92796 = biological target: T3, DLG3_2, Q92796
DVL3, Q92997 = biological target: T4, DVL3, Q92997
FRMPD1, Q5SYB0 = biological target: T5, FRMPD1, Q5SYB0
FRMPD2_2, Q68DX3 = biological target: FRMPD2_2, Q68DX3
Sequence of FRMPD2_2, Q68DX3 (Q68DX3 944-1038): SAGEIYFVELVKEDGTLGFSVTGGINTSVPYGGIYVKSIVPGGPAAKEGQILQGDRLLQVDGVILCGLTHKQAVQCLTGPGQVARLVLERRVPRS

GORASP2, Q9H8Y8 = biological target: GORASP2, Q9H8Y8
GRID2IP_1, A4D2P6 = biological target: GRID2IP_1, A4D2P6
Sequence of GRID2IP_1, A4D2P6 (A4D2P6 1-87): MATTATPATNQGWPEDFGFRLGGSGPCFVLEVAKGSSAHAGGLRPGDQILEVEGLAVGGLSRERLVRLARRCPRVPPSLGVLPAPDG

GRIP1_2, Q9Y3R0 = biological target: T6, GRIP1_2, Q9Y3R0
HTRA1, Q92743 = biological target: HTRA1, Q92743
Sequence of HTRA1, Q92743 (Q92743 360-477): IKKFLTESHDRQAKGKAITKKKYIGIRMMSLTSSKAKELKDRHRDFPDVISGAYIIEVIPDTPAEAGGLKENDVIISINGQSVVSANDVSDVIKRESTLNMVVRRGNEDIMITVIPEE

HTRA2, O43464 = biological target: HTRA2, O43464
Sequence of HTRA2, O43464 (O43464 355-458): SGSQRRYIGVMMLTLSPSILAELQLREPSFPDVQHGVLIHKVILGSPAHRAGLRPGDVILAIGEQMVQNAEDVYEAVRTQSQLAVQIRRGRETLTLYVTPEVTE

IL16_4, Q14005 = biological target: IL16_4, Q14005
Sequence of IL16_4, Q14005 (Q14005 1229-1329): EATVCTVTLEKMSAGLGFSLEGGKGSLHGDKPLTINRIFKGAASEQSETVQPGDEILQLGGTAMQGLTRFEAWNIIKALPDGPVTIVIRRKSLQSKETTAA

Inadl_8, Q8NI35 = biological target: Inadl_8, Q8NI35
Sequence of Inadl_8, Q8NI35 (Q8NI35 1425-1530): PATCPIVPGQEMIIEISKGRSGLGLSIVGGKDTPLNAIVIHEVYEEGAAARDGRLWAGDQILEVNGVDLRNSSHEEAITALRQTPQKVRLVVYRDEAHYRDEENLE

LAP2, Q96RT1 = biological target: LAP2, Q96RT1
Sequence of LAP2, Q96RT1 (Q96RT1 other isoform, or with tags, fused parts or gaps): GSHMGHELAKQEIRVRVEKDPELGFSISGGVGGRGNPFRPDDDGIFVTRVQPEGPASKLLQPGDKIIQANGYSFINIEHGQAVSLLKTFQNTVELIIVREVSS

LIN7A, O14910 = biological target: T7, LIN7A, O14910
LIN7B, Q9HAP6 = biological target: T8, LIN7B, Q9HAP6
LNX1_3, Q8TBB1 = biological target: LNX1_3, Q8TBB1
Sequence of LNX1_3, Q8TBB1 (Q8TBB1 500-596): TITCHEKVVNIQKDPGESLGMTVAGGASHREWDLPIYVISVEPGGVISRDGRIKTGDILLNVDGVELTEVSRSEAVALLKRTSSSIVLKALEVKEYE

MPP6, Q9NZW5 = biological target: T9, MPP6, Q9NZW5
NHERF4_1, Q86UT5-2 = biological target: NHERF4_1, Q86UT5-2
Sequence of NHERF4_1, Q86UT5-2 (Q86UT5 other isoform, or with tags, fused parts or gaps): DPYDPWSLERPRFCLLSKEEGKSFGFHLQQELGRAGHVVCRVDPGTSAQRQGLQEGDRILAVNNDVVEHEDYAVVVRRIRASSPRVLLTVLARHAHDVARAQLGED

PCLO, Q9Y6V0 = biological target: T10, PCLO, Q9Y6V0
PDLIM1, O00151 = biological target: PDLIM1, O00151
Sequence of PDLIM1, O00151 (O00151 1-87): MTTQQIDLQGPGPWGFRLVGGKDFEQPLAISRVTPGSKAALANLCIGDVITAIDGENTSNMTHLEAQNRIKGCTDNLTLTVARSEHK

PDZRN3_1, Q9UPQ7 = biological target: T11, PDZRN3_1, Q9UPQ7
SCRIB_3, Q14160 = biological target: SCRIB_3, Q14160
Sequence of SCRIB_3, Q14160 (Q14160 999-1103): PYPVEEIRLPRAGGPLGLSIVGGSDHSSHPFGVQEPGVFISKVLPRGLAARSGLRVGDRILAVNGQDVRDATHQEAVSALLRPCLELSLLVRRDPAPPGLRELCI

SNTG1, Q9NSN8 = biological target: T12, SNTG1, Q9NSN8
TJP1_3, Q07157 = biological target: TJP1_3, Q07157
Sequence of TJP1_3, Q07157 (Q07157 416-512): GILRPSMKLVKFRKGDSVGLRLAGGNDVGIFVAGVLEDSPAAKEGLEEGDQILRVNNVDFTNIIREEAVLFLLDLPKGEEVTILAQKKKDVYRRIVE

Binder	pKd (APBA2_1, Q99767)	pKd (ARHGEF12, Q9NZN5-2)	pKd (DLG3_1, Q92796)	pKd (DLG3_2, Q92796)	pKd (DVL3, Q92997)	pKd (FRMPD1, Q5SYB0)	pKd (FRMPD2_2, Q68DX3)	pKd (GORASP2, Q9H8Y8)	pKd (GRID2IP_1, A4D2P6)	pKd (GRIP1_2, Q9Y3R0)	pKd (HTRA1, Q92743)	pKd (HTRA2, O43464)	pKd (IL16_4, Q14005)	pKd (Inadl_8, Q8NI35)	pKd (LAP2, Q96RT1)	pKd (LIN7A, O14910)	pKd (LIN7B, Q9HAP6)	pKd (LNX1_3, Q8TBB1)	pKd (MPP6, Q9NZW5)	pKd (NHERF4_1, Q86UT5-2)	also measured
KKMLQRRTLL [OR8G1, Q15617]	below the threshold	4.51	below the threshold	below the threshold	below the threshold	below the threshold	below the threshold	3.8	below the threshold	below the threshold	below the threshold	below the threshold	below the threshold	3.55	below the threshold	below the threshold	below the threshold	below the threshold	below the threshold	4.51	pKd (PCLO, Q9Y6V0): below the threshold; pKd (PDLIM1, O00151): below the threshold; pKd (PDZRN3_1, Q9UPQ7): 3.6; pKd (SCRIB_3, Q14160): 4.07; pKd (SNTG1, Q9NSN8): below the threshold; pKd (TJP1_3, Q07157): below the threshold
QSGLYESEEL [MYOT, Q9UBF9]	below the threshold	3.63	below the threshold	4.21	below the threshold	below the threshold	below the threshold	below the threshold	below the threshold	below the threshold	4.17	below the threshold	below the threshold	below the threshold	3.9	below the threshold	3.66	below the threshold	below the threshold	4.41	pKd (PCLO, Q9Y6V0): below the threshold; pKd (PDLIM1, O00151): 5.09; pKd (PDZRN3_1, Q9UPQ7): below the threshold; pKd (SCRIB_3, Q14160): below the threshold; pKd (SNTG1, Q9NSN8): below the threshold; pKd (TJP1_3, Q07157): below the threshold
AQRARSPSDV [GPR12, P47775]	below the threshold	below the threshold	below the threshold	4.32	below the threshold	below the threshold	below the threshold	below the threshold	below the threshold	below the threshold	below the threshold	below the threshold	below the threshold	4.6	3.51	below the threshold	3.75	below the threshold	below the threshold	below the threshold	pKd (PCLO, Q9Y6V0): below the threshold; pKd (PDLIM1, O00151): below the threshold; pKd (PDZRN3_1, Q9UPQ7): below the threshold; pKd (SCRIB_3, Q14160): below the threshold; pKd (SNTG1, Q9NSN8): below the threshold; pKd (TJP1_3, Q07157): below the threshold
